These results are taken from patent US20250163136A1 (FRAUNHOFER GESELLSCHAFT ZUR F RDERUNG DER ANGEWANDTEN …, published 2025).

What is called Kd is the concentration at which binding is half-saturated.

Numbered stars: 1 amine (or outer) side, 2 acyl side, 3 side chain; on linkers, the order of the positions; unused ones are H or OH. Square brackets hold non-standard residues; d marks the D form. * marks the point of attachment. Biotin = O=C1N[C@H]2[C@H](CS[C@H]2CCCCC(=O)*)N1; βAsp = O=C(O)[C@H](CC(=O)[*:2])N[*:1]; PEG = not defined here

The target in experiment [1] is T1, freshly dissolved Aβ(1-42).
T1 construct: Dot blot lanes 8 and 9 (with m12); also called monomeric peptides of Aβ
T1 sequence (peptide, as listed by the source): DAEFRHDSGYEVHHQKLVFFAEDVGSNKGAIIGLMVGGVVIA
Nature of the experiment: dot blot. As to the method:
(§1) 0.5 μg of recombinantly expressed TTR proteins (TTRwt (SEQ ID NO: 1), TTR-V30M (SEQ ID NO: 7), or TTR-V122I (SEQ ID NO: 8)), ATTR fibrils or 0.5 μg of either freshly dissolved Aβ(1-42) (SEQ ID NO: 9) or aggregated Aβ(1-42) with confirmed isoAsp-content (SEQ ID NO: 10) were spotted on nitrocellulose membranes. Membranes were blocked for 1 hour in blocking solution (5% (w/v) milk powder in TBS+0.05% (v/v) Tween-20 (Carl Roth)). […] Alkaline phosphatase-conjugated, anti-mouse or rabbit IgG antibodies (abeam) in combination with chromogenic substrates BCIP and NBT (Carl Roth) were subsequently used for detection.

Experiment [2] addresses T2, aggregated Aβ(1-42) with confirmed isoAsp-content (isoD7-Aβ(1-42)) (X at position 7 is L-isoAsp).
T2 construct: Aggregated amyloid fibrils; dot blot lanes 8 and 9 (with m11); also called isoD7-AB; aggregated Aβ1-42 (verified isoD content)
Nature of the experiment: dot blot. As for the experimental part:
as §1

The target of experiment [3] is T3, TTR(35-43)-PEG-Biotin (human, reading uncertain).
T3 construct: also called non-modified peptide TTR(35-43)
T3 peptide: {Biotin-PEG}-KAADDTWEP-NH2
Nature of the experiment: SPR, BIAcore 3000, 25 °C; antibody captured on goat anti-mouse IgG (CM5 chip), peptide injected (multicycle kinetics, 1 µM to 200 µM). As to the method: (§2) Antibody binding kinetics to TTR(35-43)-PEG-Biotin (SEQ ID NO: 5) and isoD38-TTR(35-43)-PEG-Biotin (SEQ ID NO: 6) were analyzed by using SPR on a BIAcore 3000 device at 25° C. For this purpose, the surface of a CM5 sensor chip (Cytiva) was modified with a goat anti-mouse antibody using NHS/EDC chemistry. To immobilize the anti-mouse IgG, the carboxymethylated dextran surface of the sensor chip was activated by mixing 0.1 M N-hydroxysuccinimide (NHS) with 0.4 M N-ethyl-N′-(dimethylaminopropyl) carbodiimide hydrochloride (EDC) 1:1. EDC/NHS was applied to the sensor chip with a flow rate of 20 μL/min for 7 minutes. Goat anti-mouse IgG was diluted to 50 μg/mL in 10 mM sodium acetate, pH 5.5, and injected for 2×4 minutes contact time with a flow rate of 30 μL/min. Deactivation was done by applying 1 M ethanolamine pH 8.5 with a flow rate of 10 μL/min for 2×7 minutes contact time. About 20000 RU of the goat anti-mouse antibody were immobilized onto the chip surface.
A general note: Surface plasmon resonance follows binding to a sensor surface in real time, without labels.

Experiment [4] has as its target T4, isoD38-TTR(35-43)-PEG-Biotin (human, reading uncertain).
T4 construct: KAAXDTWEP; also called isoaspartate-containing TTR(35-43)-peptide
T4 peptide: {Biotin-PEG}-KAA[βAsp]DTWEP-NH2
Nature of the experiment: SPR, BIAcore 3000, 25 °C; antibody captured on goat anti-mouse IgG (CM5 chip), peptide injected (multicycle kinetics, 10 nM to 100 µM). As for the experimental part:
as §2

In experiment [5] the target is T4, isoD38-TTR(35-43)-PEG-Biotin. Nature of the experiment: SPR, BIAcore 3000, 25 °C; antibody captured on goat anti-mouse IgG (CM5 chip), peptide injected (five consecutive injections, 2 nM to 512 nM). As for the experimental part:
as §2

Experiment [6] concerns the target T3, TTR(35-43)-PEG-Biotin. Nature of the experiment: SPR, BIAcore 3000, 25 °C; antibody captured on goat anti-mouse IgG (CM5 chip), peptide injected (five consecutive injections, 512 nM to 131 µM). As for the experimental part:
as §2

T2 sequence (peptide, as listed by the source): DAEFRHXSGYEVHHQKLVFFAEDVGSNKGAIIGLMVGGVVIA

B1: monoclonal antibody 4D4 (antibody, V domains shown)
VH: QVQLQQSGAELMKPGASVKISCKAPGNTFSSRWIEWVKERPGHGLEWIGEIFPGNGNTNYNEKFKGKATFTADTSSNTAYIQFSSLASEDSGVYYCVSEDYWGQGTLVTVSS
VL: DIQMTQSPASLSASVGETVTITCRTSGNIRNSLAWYRQKQGKSPQLLVFNGKTLADGVPSRFSGSGSGTQYSLKINSLQPEDLGTYYCQHFWNIPFTFGSGTKLEIKR
notes: also called isoD38-TTR-specific antibody 4D4; TTR mAb 4D4
Consider B1, for which the binding result in experiment [1] and in experiment [2] was “no binding (tested: 0.5 µg peptide spotted; antibody 1 µg/mL)” throughout. The Kd is 29000 nM in the experiment with TTR(35-43)-PEG-Biotin [3] and 124 nM in experiment [4].

B2: monoclonal antibody 2F2 (antibody, V domains shown)
VH: DVQLVESGGGLVQPGGSRKLSCAASGFTFSSFAMHWVRQAPDKGLEWVAFISSGSNTIYYADTVKGRFTVSRDNPKNTLFLQMTSLRSEDTAMYYCASNSYYGMDYWGQGTSVTVSS
VL: NIMMTQSPSSLAVSAGEKVTMSCKSSQSVLYSSNQKNYLAWYQQKPGQSPKLLIYWASTRESGVPDRFTGSGSGTDFTLTISSVQAEDLAVYYCHQYLSSRTFGAGTKLELKR
notes: also called isoD38-TTR-specific antibody 2F2; TTR mAb 2F2
B2: the binding result in experiment [1] and in experiment [2] was “no binding (tested: 0.5 µg peptide spotted; antibody 1 µg/mL)” in each case. Further, the Kd in experiment [5] worked out at 1.55 nM; in the experiment with TTR(35-43)-PEG-Biotin [6], 719 nM.
